Results taken from patent publication US20100075326A1 (CORNELL UNIVERSITY, published 2010).

Tests used:
[1] = biological target: T1, Botulinum neurotoxin serotype A light chain protease (BoNT/A-LC), YS2H bait fused to Aga2 with C-terminal … (yeast, UniProt P0DPI0 1-448); assay: predicted from YS2H (flow cytometry of Myc and FLAG tags, Langmuir equation)
T1 construct: range 1-448

[2] = biological target: T2, Botulinum neurotoxin serotype A light chain protease (BoNT/A-LC), soluble, hexahistidine tags at both termini (UniProt P0DPI0 1-448); assay: SPR (Biacore), G6 compared with B8 on A-LC
T2 construct: range 1-448

[3] = biological target: T2, Botulinum neurotoxin serotype A light …; assay: SPR (Biacore), A-LC injected over G6-coated chip
[4] = biological target: T2, Botulinum neurotoxin serotype A light …; assay: SPR (Biacore), A-LC injected over G6-coated chip; remark: listed apart in the source
[5] = biological target: T2, Botulinum neurotoxin serotype A light …; assay: SPR (Biacore), A-LC injected over B8-coated chip
[6] = biological target: T2, Botulinum neurotoxin serotype A light …; assay: SPR (Biacore), A-LC injected over B8-coated chip; remark: listed apart in the source

B1: VHH-G6, secreted YS2H prey with C-terminal Myc tag (VHH)
VHH: HVQLQQSGGGLVQPGGSLRLSCAASGFTLDYYAIGWFRQAPGKEREGVSCISSSGGSTYYADSVKGRFTISRDNAKNTVYLQMNSLKPEDTAVYYCAVAQSCLRGGVRGGYWGQGTQVTVSS
[1]
  Kd: 143 nM

B2: VHH-G6, soluble, from E. coli (pET20b) (VHH)
VHH: B1 VHH
[2]
  fold difference in affinity against B8: 100 fold
  fold difference in association rate against B8: 3 fold
  fold difference in dissociation rate against B8: 34 fold
[3]
  koff: 0.0182 s⁻¹
  kon: 76100 M⁻¹ s⁻¹
[4]
  Kd: 230 nM

B3: VHH-B8, secreted YS2H prey with C-terminal Myc tag (VHH)
VHH: HVQLQQSGGGLVQPGGSLRLSCAASGSIFSIYAMGWYRQAPGKQRELVAAISSYGSTNYADSVKGRFTISRDNAKNTVYLQMNSLKPEDTAVYYCNADIATMTAVGGFDYWGQGTQVTVSS
[1]
  Kd: 38.2 nM

B4: VHH-B8, soluble, from E. coli (pET20b) (VHH)
VHH: B3 VHH
[5]
  koff: 0.000518 s⁻¹
  kon: 226000 M⁻¹ s⁻¹
[6]
  Kd: 2.3 nM
